In US20170152299A1 (GUANGZHOU SHENGLU BIOTECH, published 2017):
Numbering of substitutions follows the chain as printed. Names and notes keep the numbering of the source.

T1: FGF7 (UniProt P21781 32-194)
T1 construct: Bought reagent; also called KGF
T1 sequence (looked up): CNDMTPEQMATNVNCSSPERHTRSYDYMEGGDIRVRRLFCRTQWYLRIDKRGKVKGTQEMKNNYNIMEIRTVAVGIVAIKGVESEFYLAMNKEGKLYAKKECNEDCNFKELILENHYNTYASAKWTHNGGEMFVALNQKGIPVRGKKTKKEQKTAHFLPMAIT

B1: truncated protein of the wild-type FGFR2b extracellular fragment (SEQ ID NO: 8) (receptor)
chain: KRAPYWTNTEKMEKRLHAVPAANTVKFRCPAGGNPMPTMRWLKNGKEFKQEHRIGGYKVRNQHWSLIMESVVPSDKGNYTCVVENEYGSINHTYHLDVVERSPHRPILQAGLPANASTVVGGDVEFVCKVYSDAQPHIQWIKHVEKNGSKYGPDGLPYLKVLKHSGINSSNAEVLALFNVTEADAGEYICKVSNYIGQANQSAWLTVLPKQQAPGR
notes: also called truncated FGFR2b extracellular fragment, wild type
B2: truncated protein of S252W mutant-type FGFR2b extracellular fragment (SEQ ID NO: 10) (receptor)
chain: B1 chain with S102W
notes: also called truncated FGFR2b extracellular fragment, S252W mutant type
B3: truncated protein of P253R mutant-type FGFR2b extracellular fragment (SEQ ID NO: 12) (receptor)
chain: B1 chain with P103R
notes: also called truncated FGFR2b extracellular fragment, P253R mutant type

biological target: T1, FGF7; assay: isothermal titration calorimetry; FGF7 titrated into the truncated FGFR2b extracellular fragment in the sample cell (Example 8)
Procedure: The three types of the FGFR2b extracellular fragments and FGF7 (purchased from Millipore) were dialysed respectively with iTC buffer (0.15 mol/L NaCl and 5% glycerol in 20 mmol/L Na₂HPO₄-citrate buffer, pH 7.2). The proteins after the dialysis was centrifuged at 4° C. and 18000 rpm for 30 min before the iTC experiment.
400 ul 35 μmol/L of each of the three types of the FGFR2b extracellular fragments was added to the sample pool, respectively, and titrated with 200 μl 93 μmol/LFGF7 at 2 μl per time at a 2.5 min interval for a total of 20 drops.

Row | Ka [M⁻¹] | Binder
1 | 8.74e+06 | B1
2 | 1.26e+08 | B2
3 | 3.94e+07 | B3
